Test results from the supplement of paper PMC10126150.
± gives the standard deviation of the averaged measurements.

Test system: ATP
Assay: switch fluorescence ratio, 500 uM ATP over buffer (Cy3 cluster intensity, sum of 5 cycles each) (fold (ratio)); higher = stronger signal-on switching upon ATP binding; sequences stand for … in TCGTCGGCAGCGTCAGATGTGTATAAGAGACAGTTTTTTTTTTTTTTTTTTTTTTTTT…TC
Conditions: aptamer strand: ATP DNA aptamer (quencher-CACCTGGGGGAGTATTGCGGAGGAAGG + anchor), 100 nM annealed; ATP concentration: 500 uM
Summary of the method: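 Cy3-labelled switching-strand clusters on a modified Illumina MiSeq flow-cell were annealed to 100 nM quencher-labelled ATP aptamer, imaged in selection buffer, then imaged after 15 min with 500 uM ATP at 22 °C. Five buffer/ATP cycles ran, with NaOH stripping and re-annealing between them. The fluorescence ratio is summed target-cycle over summed buffer-cycle Cy3 intensity per cluster, averaged per switch-domain sequence. Clusters outside 100-1000 RFU were excluded.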
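Further: ATP exposure 15 min at 22 °C before imaging.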

| Sequence | switch fluorescence ratio |
| --- | --- |
| AGGGTTATTG | 1.01 ± 0.047 |
| AGGGTTGAAG | 0.989 ± 0.035 |
| AGGGTTGGAG | 1.003 ± 0.0042 |
| AGGGTTGTTA | 0.982 ± 0.027 |
| AGGGTTTGTG | 1.11 ± 0.037 |
| AGGGTTTGTT | 1.02 ± 0.04 |
| AGGGTTTTGG | 0.999 ± 0.03 |
| AGGTAATACG | 1.098 ± 0.0067 |
| AGGTAATGAA | 0.967 ± 0.023 |
| AGGTACAGTA | 1.017 ± 0.0017 |
| AGGTAGAAGA | 0.97 ± 0.013 |
| AGGTAGCATA | 1.05 ± 0.03 |
| AGGTAGCATG | 1.01 ± 0.066 |
| AGGTAGGACT | 1 ± 0.014 |
| AGGTAGGGCA | 0.9762 ± 0.0049 |
| AGGTAGGTGG | 1.01 ± 0.019 |
| AGGTAGGTTT | 0.99 ± 0.017 |
| AGGTAGTAAG | 0.995 ± 0.031 |
| AGGTAGTCTG | 0.9756 ± 0.003 |
| AGGTATCAGA | 0.972 ± 0.021 |
| AGGTCCTCTA | 0.974 ± 0.059 |
| AGGTCCTGTG | 0.998 ± 0.016 |
| AGGTCCTTCA | 1.29 ± 0.046 |
| AGGTCGGAAT | 1.04 ± 0.028 |
| AGGTCGGCAT | 0.997 ± 0.02 |

| Sequence | switch fluorescence ratio |
| --- | --- |
| AGGTCTAGTT | 0.9995 ± 0.0089 |
| AGGTGAATGG | 1.02 ± 0.03 |
| AGGTGATATG | 1.0171 ± 0.00075 |
| AGGTGCCTG | 0.971 ± 0.035 |
| AGGTGCTCTT | 1 ± 0.053 |
| AGGTGCTGGT | 0.997 ± 0.033 |
| AGGTGCTGTG | 1.01 ± 0.051 |
| AGGTGCTTGG | 0.997 ± 0.026 |
| AGGTGGAAGG | 0.984 ± 0.021 |
| AGGTGGAGGG | 1 ± 0.032 |
| AGGTGGCATT | 1.04 ± 0.015 |
| AGGTGGCCGT | 0.963 ± 0.02 |
| AGGTGGTGGG | 1.01 ± 0.014 |
| AGGTGTAGGC | 0.979 ± 0.038 |
| AGGTGTAGGG | 1.01 ± 0.025 |
| AGGTGTATTC | 0.9962 ± 0.0058 |
| AGGTGTCTTG | 1.14 ± 0.074 |
| AGGTGTGTGC | 0.97 ± 0.014 |
| AGGTGTTGGA | 0.985 ± 0.032 |
| AGGTGTTGGG | 1.01 ± 0.035 |
| AGGTGTTGGT | 1.03 ± 0.025 |
| AGGTGTTTGT | 1.01 ± 0.028 |
| AGGTTAACAG | 0.9909 ± 0.0073 |
| AGGTTAATGT | 0.996 ± 0.032 |
| AGGTTAATTG | 0.9909 ± 0.0072 |

| Sequence | switch fluorescence ratio |
| --- | --- |
| AGGTTACGAG | 1 ± 0.02 |
| AGGTTAGGGC | 0.984 ± 0.018 |
| AGGTTAGTGG | 1.015 ± 0.01 |
| AGGTTATGTG | 0.999 ± 0.037 |
| AGGTTCCTCT | 1.04 ± 0.019 |
| AGGTTCGGAG | 1.04 ± 0.06 |
| AGGTTGACTG | 0.988 ± 0.1 |
| AGGTTGAGAG | 0.9515 ± 0.0075 |
| AGGTTGAGGT | 1.08 ± 0.12 |
| AGGTTGGAGC | 1 ± 0.021 |
| AGGTTGGGCA | 0.984 ± 0.0096 |
| AGGTTGGGT | 0.973 ± 0.025 |
| AGGTTGTGCG | 1 ± 0.042 |
| AGGTTGTGCT | 0.9644 ± 0.009 |
| AGGTTGTGTG | 0.959 ± 0.044 |
| AGGTTGTTAG | 1.01 ± 0.019 |
| AGGTTTAAGG | 0.9726 ± 0.0058 |
| AGGTTTGCAA | 1.04 ± 0.028 |
| AGGTTTGCGA | 1.02 ± 0.018 |
| AGGTTTGCTA | 0.959 ± 0.017 |
| AGGTTTGTGT | 1.01 ± 0.024 |
| AGGTTTGTTG | 0.998 ± 0.016 |
| AGGTTTGTTT | 0.976 ± 0.0092 |
| AGGTTTTCTA | 1.012 ± 0.0036 |
| AGGTTTTGGA | 0.98 ± 0.021 |

| Sequence | switch fluorescence ratio |
| --- | --- |
| AGTAAAGCGG | 1 ± 0.027 |
| AGTAAAGGGA | 1.02 ± 0.029 |
| AGTAAATAGT | 1.0008 ± 3.6e-05 |
| AGTAAATGGA | 0.9854 ± 0.0055 |
| AGTAAGGGAG | 1.01 ± 0.082 |
| AGTAAGGGGG | 0.998 ± 0.035 |
| AGTAAGGTTA | 1 ± 0.024 |
| AGTAATGAAA | 0.975 ± 0.035 |
| AGTACAGGGT | 0.99 ± 0.032 |
| AGTACCGTTT | 0.968 ± 0.027 |
| AGTACTAGGA | 0.993 ± 0.011 |
| AGTACTGGCA | 1.04 ± 0.061 |
| AGTAGATGGC | 1.02 ± 0.053 |
| AGTAGCAAG | 1.08 ± 0.036 |
| AGTAGCCTGA | 1.01 ± 0.013 |
| AGTAGCTCGG | 1.009 ± 0.0092 |
| AGTAGGGCGG | 1 ± 0.033 |
| AGTAGGGGAC | 0.994 ± 0.022 |
| AGTAGGGTGG | 0.991 ± 0.032 |
| AGTAGTAGGA | 1.01 ± 0.017 |
| AGTAGTTATT | 0.965 ± 0.011 |
| AGTATAGAAA | 0.978 ± 0.0065 |
| AGTATATAGT | 1.004 ± 0.0073 |
| AGTATATCTT | 0.98 ± 0.012 |
| AGTATATGGA | 1.01 ± 0.013 |
